Values quoted from earlier work in article PMC4454200.

Molecular target: Myosin-5a GTD (Mus musculus) (UniProt Q99104)
Sequence (Q99104 1469-1853): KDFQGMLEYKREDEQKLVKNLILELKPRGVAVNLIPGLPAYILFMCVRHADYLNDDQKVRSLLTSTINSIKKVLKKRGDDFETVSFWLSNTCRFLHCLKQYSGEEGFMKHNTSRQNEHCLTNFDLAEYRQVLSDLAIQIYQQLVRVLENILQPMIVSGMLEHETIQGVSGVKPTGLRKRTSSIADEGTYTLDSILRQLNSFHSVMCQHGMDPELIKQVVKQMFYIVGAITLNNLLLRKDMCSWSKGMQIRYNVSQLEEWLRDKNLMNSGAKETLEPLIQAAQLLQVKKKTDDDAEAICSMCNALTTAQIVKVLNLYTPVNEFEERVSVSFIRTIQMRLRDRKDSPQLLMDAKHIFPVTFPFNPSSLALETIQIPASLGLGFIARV

Sequence of Melanophilin GTBDP (Q91V27 176-201): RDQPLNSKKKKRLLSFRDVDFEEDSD

Kd: 500 nM
Substance: Melanophilin GTBDP (from UniProt Q91V27)
